B1: HA-tagged wild-type human ZP1 [human] / MYC-tagged human wild-type ZP3 [human] (parent)
chain 1: RWLQPDPGLPGLRHSYDCGIKGMQLLVFPRPGQTLRFKVVDEFGNRFDVNNCSICYHWVTSRPQEPAVFSADYRGCHVLEKDGRFHLRVFMEAVLPNGRVDVAQDATLICPKPDPSRTLDSQLAPPAMFSVSTPQTLSFLPTSGHTSQGSGHAFPSPLDPGHSSVHPTPALPSPGPGPTLATLAQPHWGTLEHWDVNKRDYIGTHLSQEQCQVASGHLPCIVRRTSKEACQQAGCCYDNTREVPCYYGNTATVQCFRDGYFVLVVSQEMALTHRITLANIHLAYAPTSCSPTQHTEAFVVFYFPLTHCGTTMQVAGDQLIYENWLVSGIHIQKGPQGSITRDSTFQLHVRCVFNASDFLPIQASIFPPPSPAPMTQPGPLRLELRIAKDETFSSYYGEDDYPIVRLLREPVHVEVRLLQRTDPNLVLLLHQCWGAPSANPFQQPQWPILSDGCPFKGDSYRTQMVALDGATPFQSHYQRFTVATFALLDSGSQRALRGLVYLFCSTSACHTSGLETCSTACSTGTTRQ
chain 2: QPLWLLQGGASHPETSVQPVLVECQEATLMVMVSKDLFGTGKLIRAADLTLGPEACEPLVSMDTEDVVRFEVGLHECGNSMQVTDDALVYSTFLLHDPRPVGNLSIVRTNRAEIPIECRYPRQGNVSSQAILPTWLPFRTTVFSEEKLTFSLRLMEENWNAEKRSPTFHLGDAAHLQAEIHTGSHVPLRLFVDHCVATPTPDQNASPYHTIVDFHGCLVDGLTDASSAFKVPRPGPDTLQFTVDVFHFANDSRNMIYITCHLKVTLAEQDPDELNKACSFSKPSNSWFPVEGSADICQCCNKGDCGTPSHSRRQPHVMSQWSRSASRN
B2: MYC-tagged human wild-type ZP3 [human] / HA-tagged wild-type human ZP1 [human] (parent)
chain 1: B1 chain 2
chain 2: B1 chain 1

Variants of: B1
Test: co-IP (IP: anti-HA, blot anti-MYC), densitometry
Settings: with MYC-tagged human wild-type ZP3 [human]; HeLa cells; mutant lane co-transfected with HA-ZP1WT + HA-ZP1R109H + MYC-ZP3 (imitating heterozygous state); parent lane HA-ZP1WT + MYC-ZP3; parent: 1; read off a plot; scale: relative protein level

response	Variant
0.22	chain 1 R84H

Variants of: B2
Test: co-IP (IP: MYC as labelled in the image, blot anti-HA), densitometry
Settings: with HA-tagged wild-type human ZP1 [human]; HeLa cells; mutant lane co-transfected with MYC-ZP3WT + MYC-ZP3A134T + HA-ZP1 (imitating heterozygous state); parent lane MYC-ZP3WT + HA-ZP1; parent: 1; read off a plot; scale: relative protein level

response	Variant
0.87	chain 1 A112T

Reference: article PMC7412702
